From patent WO2001094586A2 (dated 2001)
Where a chain is given by its changes, count along the chain named. Each block holds one molecule with its values, some of them ahead of it.

Columns and labels:
[1] = molecular target: soluble fusion protein of human gp39 (gp39-CD8) (human) (UniProt P29965); experiment: cell-based or functional assay
[2] = molecular target: T1, human gp39 (CD40 ligand), cell-surface (human, UniProt P29965 1-261); experiment: cell-based or functional assay
T1 construct: whole, on cells; also called CD154; mgp39
T1 sequence (looked up): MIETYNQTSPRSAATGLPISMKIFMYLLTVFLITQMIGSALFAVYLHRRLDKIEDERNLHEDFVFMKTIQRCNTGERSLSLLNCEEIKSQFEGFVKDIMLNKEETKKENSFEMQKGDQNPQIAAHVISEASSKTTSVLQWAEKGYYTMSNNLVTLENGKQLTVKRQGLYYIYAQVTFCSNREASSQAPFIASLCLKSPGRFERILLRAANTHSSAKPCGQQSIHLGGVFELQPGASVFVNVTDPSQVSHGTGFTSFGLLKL

[3] = molecular target: T1, human gp39 (CD40 ligand), cell-surface; experiment: Scatchard analysis, 125I-labelled antibody on gp39-CHO cells

Molecule: TRAP-1, commercial murine anti-CD40L antibody
IL-2 production with TRAP-1 (30 ng/mL) and a 4:1 molar excess of soluble CD8-CD40L fusion protein [1]: 1500 pg/mL
IL-2 production with immobilized anti-CD3 (10 ng/mL) [2]: > 4600 pg/mL

B1: humanized 24-31 antibody, version 1 (#1 VL with #1 VH) (antibody, V domains shown)
VH: EVQLQESGPGLVKPSETLSLTCTVSGDSITNGFWIWIRKPPGNKLEYMGYISYSGSTYYNPSLKSRISISRDTSKNQFSLKLSSVTAADTGVYYCACRSYGRTPYYFDFWGQGTTLTVSS
VL: DIVMTQSPSFLSASVGDRVTITCKASQNVITAVAWYQQKPGKSPKLLIYSASNRYTGVPDRFSGSGSGTDFTLTISSLQPEDFADYFCQQYNSYPYTFGGGTKLEIK
notes: also called IDEC131
Kd [3]: 5.6 nM

Now from value to molecule:

Kd [3]: 8.51 nM
B2: murine antibody 24-31 (anti-human gp39 monoclonal antibody) (antibody, V domains shown)
VH: EVQLQESGPSLVKPSQTLSLTCSVTGDSITNGFWIWIRKFPGNKLEYMGYISYSGSTYYNPSLKSRISITRDTSQNQFYLQLNSVTTEDTGTYYCACRSYGRTPYYFDFWGQGTTLTVSS
VL: B1 VL with P8Q, S9K, L11M, A13T, T20S, K42Q, S77N, L78M, P80S, F83L
notes: also called murine 24-31; anti-gp39 24-31 mAb

Kd [3]: 14 nM
B3: humanized 24-31 antibody, version 2 (#2 VL with #1 VH) (antibody, V domains shown)
VH: B1 VH
VL: DIVMTQSPDSLAVSLGERATINCKASQNVITAVAWYQQKPGQSPKLLIYSASNRYTGVPDRFSGSGSGTDFTLTISSLQAEDVADYFCQQYNSYPYTFGGGTKLEIK
notes: Built in the N5KG1 vector (human kappa and gamma 1 constant regions); also called humanized 24-31 version 2; humanized Version 2
